# According to publication doi:10.1101/2023.11.30.569392:
# T1: recTZF-WT (GST-TEV-TTP TZF) (Mus musculus, UniProt P22893 93-165)
# T1 sequence: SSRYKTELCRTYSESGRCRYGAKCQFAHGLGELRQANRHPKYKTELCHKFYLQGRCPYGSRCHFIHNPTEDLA
# Target: T1, recTZF-WT (GST-TEV-TTP TZF)
# Test: EMSA
binder,measurement,value
AUUAUUUAUUAUUUAUUUAUUAUUUA (ssRNA) [Tnf-ARE],binding result,binds
